Here are results for 40 sequences from the nanobody polyreactivity screen of Harvey et al. (2022).

This data set can be described thus: yeast display, Sf9 membrane polyspecificity reagent, FACS + sequencing; frameworks hold sequencing errors. In outline: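 Galactose induction of a Saccharomyces cerevisiae BJ5465 synthetic nanobody display library ran 36–48 hours. The cells were then stained for 1 hour at 4 °C with 10% biotinylated, detergent-solubilized Sf9 membrane reagent, pulled down on streptavidin microbeads and FACS-sorted into low and high (top ~1%) gates on expression and reagent-binding fluorescence. Labels for polyreactivity follow the gate of origin.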
Consider “QVQLVESGGGLVQAGGSLRLSCAASGSIFFPYVMGWYRQAPGKERELVAAITYRAGSTYYADSVKGRFTISRDHAKNTFYLQMNSLKPEDTAVYYCNKEAAPLGFVTSYYGRDYWGQGTQVTVSS”, for which the “polyreactivity (PSR sort gate)” value is “low polyreactivity”.

Take “QVQLVESGGGLVQAGGSLRLSCAASGRTFRYYTKGWSRQAPGKERELVADINTSVGSTDYADSVKGRFTISRDNAKNTVYLQMNSLKPEDTAVYYCAKVGFTYYAVDYWGQGTQVTVSS”: the “polyreactivity (PSR sort gate)” value is reported as “high polyreactivity”.

Consider “QVQLVESGGGLVQAGGSLRLSCAASGFTFVPNTMGWYRQAPGKERELVARIRWRGGSTYYADSVKGRFTISRDNAKNTVYLQMNSLKPEDTAVYYCNAVRGYDARPYSEVYHGEKYYYWGQGTQVTVSS”, for which the “polyreactivity (PSR sort gate)” value is “low polyreactivity”.

Take “QVQLVESGGGLVQAGGSLRLSCAASGSTFNYYALGGYRQAPGKERELVAAISTSDGSTYYADSVKGRFTISRDNAKITVYVQMNSLKPEDTAVYYCAADSYERFPSYYYWGQGTQVTVSS”: the “polyreactivity (PSR sort gate)” value is “low polyreactivity”.

“QVQLVESGGGLVQAGGSLRLSCAASGNTFWGNAMGWYIQAPGKERELVAAITSGGNTNYADSVKGRFTISRDNAKNTVYLQMNSLKPEDTAVYYCNVDLKAWLPDGGSVDYWGQGTQVTVSS”: the “polyreactivity (PSR sort gate)” value is recorded as “low polyreactivity”.

As for “QVQLVESGGGLVQAGGSLRLSCAASGFIFYYNGMGRYRQAPGKERELVAAISGGVGSTYYADSVKGRFTISRDNAKNTVYLQMNSLKPEDTAVYYCNAKLYKPPFDYWGQGTQVTLSS”, the “polyreactivity (PSR sort gate)” value is reported as “low polyreactivity”.

“LVQLVESGGGLVHAGGSLRLSCAASGSTFNIYAMGWYRQAPGKERELVAAISSSGGRTYYADSVKGRFTISRDNAKNTVYFQMIRLKPEDTAVYYCAARSRRVSLIRDSYGYWGQGTQVNVSS”: the “polyreactivity (PSR sort gate)” value was “high polyreactivity”.

For the sequence “QVQLVESGGGLVQAGGSLRLSCAASGLILSGYTMGWYRPAPGKERELVAAISRSGGRTYYADSVKGRFTISRDNAKNTVYLQMNSLKPEDTAVYYCAAAKRTWRSDYWGQGTQVTVSS”, the “polyreactivity (PSR sort gate)” value was “high polyreactivity”.

With “QVQLVESGGGLVQAGGSLRLSCGASGFISTYYAMGWYRQAPGKERELVAAISWNGGSTYYADSVKGRFTISRDNAKNTVYLQMNSLKPEDTAVYYCAAYLGKWRHFYSSDYDYWGQGTQVTVSS”, the “polyreactivity (PSR sort gate)” value was “low polyreactivity”.

For “QVQLVESGGGLVQAGGSLRLSCAASGRTFYKNTMGWYRQAPGKERELVATISQRRGSTYYADSVKGRFTISRDNAKNTVYLQMNSLKTEDTAVYYCNARKYTQSIHYDYWGQGTQVTVSS”, the “polyreactivity (PSR sort gate)” value is “high polyreactivity”.

Take “QVQLVESGGGLVQAGGSLRLSCAASGRTFVFYAMGWYIQAPGKERELVASISDGDRTNYADSVKGRFTISRDNAKNTVYLQMNSLKPEDTAVYYCAADREFWWEVVYTYEYYYWGQGTQVTVSS”: the “polyreactivity (PSR sort gate)” value is listed as “low polyreactivity”.

For “QVQLVESGGGLVQAGGSLRLSCAASGFTFPYYAMGWYRQAPGKERELVAAITSSGGSTYYADSVKGRFTISRDNAKNTVYLQMNSLKPEDTAVYYCAVDAYYYKWYDYWGQGTQVTVSS”, the “polyreactivity (PSR sort gate)” value is given as “high polyreactivity”.

On to “QVQLVESGGCLVQAGGILRLSCAASGYTFFLYAMGWYRQAPGKERELVAAINNGGGSTYYADSVKGRFTISRDNAKNTVYLQMNSLKPEDTAVYYCAVRVARGYRYGYWGQGTQVTVSS”, for which the “polyreactivity (PSR sort gate)” value is “high polyreactivity”.

As for “QVQLVESGGGLVQAGGSLRLSCAASGFTFSSYAMGWSRQAPGKERELVAAISTRGGSTYYADSVKGRFTISRDNAKNTVYLQMNSLKPEDTAVYYCATGGRGGRRYEYWGQGTQVTVSS”, the “polyreactivity (PSR sort gate)” value is reported as “low polyreactivity”.

Turning to “QIQLVESGGGLDQAGGSLRISCAASAYTYVDYIGCYIPAPGKERELVADIDNSGGGTYYADSVTGRFTISRDNAKNTVYFLMNSLKAEDTAVYYCAAEFPYDDYYSNRDYDYWGQGTQVTVSS”, the “polyreactivity (PSR sort gate)” value is on record as “low polyreactivity”.

On to “QVQLVESGGGLVQAGGRLRLSCAASGSIFRVYAMGWYRQAPGKERELVARISRGGRTNYADSVKGRFTISRDNAKNTVYLQMNSLKPEDTAVYYCAADVVSLESYSYQSLGYDYWGQGTQVTVSS”, for which the “polyreactivity (PSR sort gate)” value is reported as “high polyreactivity”.

Regarding “QVQLVESGGALVQAGGSLRLTCAASGRTFYYYAKGWYRPAPGTERELVAAISCSGGRTYYADSVKGRFTISRDNANDTVYVPMNSLKPEDTAVFYCYAEPPSGYTVSSGGEMDYWGQGTQVTVSS”, the “polyreactivity (PSR sort gate)” value is on record as “low polyreactivity”.

On to “QVQLVESGGGLVQAGGTLRLSCAASGGTFRRYAMGWYRQAPGKERELVAAISWTGGSTYYADSVKGRFTISRDNAKNTVYLQMNSLKPEDSAVYYCAAVGSSSSKGGYWGQGTQVTVSS”, for which the “polyreactivity (PSR sort gate)” value is “high polyreactivity”.

On to “QVQLVESGGGLVQAGGSLRLSCAASGRIFDSYAMGWYRQAPGKERELVATISWDSASTYYADSVKGRFTISRDYAKNTVYLQMNSLKPEDTAVYYCAAGGSSSWAFNYWGQGTQVTVSS”, for which the “polyreactivity (PSR sort gate)” value is “low polyreactivity”.

With “QVQLEESGGGLVQAGGSLRLSCAASGLIFWAYAMGWYRQAPGKDTELVAAINWRGGSTYYADSVKGRFTISRDNAKNTVYLQMNSLKPEDTAVYFCAGDSSYDEYDYWGQGTQVTVSS”, the “polyreactivity (PSR sort gate)” value is on record as “low polyreactivity”.

As to “QVQLQESAGGLVQAGGSLRLRCSASGYISCDASMGWYRQAPRKERELAASITKGSSTNYADSVKGRFTIRDNAKNSVYLQMNSLKPEDTAVFYCAVTYPYWGDYTYWGQGTQVTVSS”, the “polyreactivity (PSR sort gate)” value is “low polyreactivity”.

In the case of “QVQLVESGGGLVQAGGSRRLSCAASGFTFSQYTRGWYRQAPGKERELVAAISSGSSTYYADSVKGRFTISRDNAKNTVYLQMNSLKPEDTAVYYCAARVGWYTWGYYWGQGTQVTVSS”, the “polyreactivity (PSR sort gate)” value is listed as “high polyreactivity”.

“QVQRVESGGGLVQAGGRLRLSCAASGFTFFHYAMGRYRQAPGKERELVAAISWSGGTTYYADSVKGRFTISRDNAKNTVYLQMNCLKPEDTAVYYFAADGGLGWRWLPLGYRYGFDYWGQGTQVTVSS”: the “polyreactivity (PSR sort gate)” value is on record as “low polyreactivity”.

Consider “QVQLVESGGGLVQAGGSLRLSCAASGSIFFSYAMGWYRQAPGKERELVAAISSGGSTYYADSVKGRFTISRDNAKNTVYLQMNSLKPEDTAVYYCAARGYRLVPVDFYYWGQGTQVTVSS”, for which the “polyreactivity (PSR sort gate)” value was “low polyreactivity”.

As to “QVQLVESGGGLVQAGGSLRLSCAASGRIIGRYVRGWYRQAPGKERELVAAITRGGSTNYADSVKGRYTISRDNAKNTVYLQMNSLKPEDTAVYYCARAYSTVNRYSMYYWGQGTQVTVSS”, the “polyreactivity (PSR sort gate)” value is “high polyreactivity”.

Turning to “QVQLVESGGGLVQAGGSLRLSCAAYGSIFGYYAMGWYRQAPVKERALVAAITWSGDSTYYADSVKGRFTISRDNAKNTVYLQMKSLNPEDTAVYYCSARQFVHTRYFSFGYWGQGTQVTVSS”, the “polyreactivity (PSR sort gate)” value is given as “low polyreactivity”.

Regarding “QVQLVESGGGLVQAGGSLRLSCAASGLTFVWYAMGWYRQAPGKERELVASITRRGVSTYADSVKGRFTISRDNAKNTVYLQMNSLKPEDTAVYYCKAQLIYKKGWYDYWGQGTQVTVSS”, the “polyreactivity (PSR sort gate)” value is “high polyreactivity”.

For the sequence “QVQLVESGGALVQAGGSLRLSCAASGSIFVSNAMGWYRQAPGKERELVAAISQSGGSTYYADSVKGRFTISRDNAKNTVYLQMNSLKPEDTAVYYCATPIRSGFRIYDYWGQGTQVNVSS”, the “polyreactivity (PSR sort gate)” value is given as “low polyreactivity”.

As to “QVQLVESGGGLVQAGGSLRLSCAASGSIFLDYAMGWYRQAPGKERELVAGITISGGSTYYADSVKGRFTISRDNAKNTVYLQMNSLKPEDTSVYYCAKVAPRSSSSQEYYYWGQGTQVTVSS”, the “polyreactivity (PSR sort gate)” value is “low polyreactivity”.

For the sequence “QVQLVESGGGLVQAGGSLRLSCAASGSTLPRYAMGWYRQAPGKEREFVAAMTWRGGSTYYADSVKGRFTISRDNAKNTVYLQMNSLKPEDTAVYYCNTHRNGGSHRRYNYWGQGTQVTVSS”, the “polyreactivity (PSR sort gate)” value is “high polyreactivity”.

Regarding “QVQLVESGGGLVQAGGSLRLSCAASGRTFYFYAMGWYRQAPGKERELVAGISWRGVSTYYADSVKGRFTISRDNAKNTVYLQMNSLKPEDTAVYYCAADIGRHTDNYDPRYDYWGQGTQVTVSS”, the “polyreactivity (PSR sort gate)” value was “low polyreactivity”.

Regarding “QVQLQESGGGLVQAGGSLRLSCASSGSISILQSMGWYRQAPGKERELVAGINWGATTYYADSVKGRLTTSRDYAKNTVYLQMNSLKPEDTGVYYCAVPTYYTYPLLYWGQGTQVTVSS”, the “polyreactivity (PSR sort gate)” value is “low polyreactivity”.

Take “QVQLVESGGGLVQAGGSLRLSCAASGRIFTVNAMGWYRQAPGKERELVASITGRGTRTYYADSVKGRFTISRDNAKNTVYLQMNSLKPEDTAVYYCAAAVARVKYDSKGYYWGQGTQVTVSS”: the “polyreactivity (PSR sort gate)” value is recorded as “high polyreactivity”.

Regarding “QVQLVESGGGLVQAGGSLRLSCAASGFTFDYYAMGWYRQAPGKDRELVAAITSGSITYYADSVKGRFTISRDNAKNTVYLQMNSLKPEDTAVYYCARYGYRRVGSRWAEFDYWGQGTQVTVSS”, the “polyreactivity (PSR sort gate)” value is “high polyreactivity”.

As for “QVQLVESGGGLVQAGGSLRLSCAASGSIFYGNALGWYRQAPGKEREFVAAISSSGGSTYYADSVKGRFTISRDNAKNTVYLQMNSLKPEDTAVYYCAARGPKHTHSRRYFTEYDYWGQGTQVTVSS”, the “polyreactivity (PSR sort gate)” value is reported as “low polyreactivity”.

For “QVQLVESGGGLVQAGGSLRLSCAASGRILDKYAMGWYRPAPGKERELVARIRFSGGDTYADSVKGRFTISRDNAKNTVYLQMNSLKPEDTAVYYCNKDRRNRWDAFDYWGQGTQVTVSS”, the “polyreactivity (PSR sort gate)” value is reported as “low polyreactivity”.

Take “QVQLVESGVGLVQAGGSLRLSCAASGITFAGNAMGWYRQAPGKERELVATITSDGNTNYADSVKGRFTISRDNAKNTVYLQMNSLKPEDTAVYYCNAEVIVGTDEYDYWGQGTQVTVSS”: the “polyreactivity (PSR sort gate)” value is listed as “low polyreactivity”.

“QVQLVESGGGLVQAGGSLRLICAASGFTIGPYAMGWSRQAPGKERELVAAITIRGGSTYADSVKGRFTISRDNAKNTVYFQMNSLKTEDTAVSYCATVRALEYNYWGQGTQVTVSS”: the “polyreactivity (PSR sort gate)” value is “low polyreactivity”.

On to “QVQLVESGGGVVQAGGSLRLSCAASGFTFAYYATGWYRQAPGKERELVAAISRSGGSTYYADSVKGRFTISRDNAKNTVYLHMNSLKPEDTAVYYCARDQRKLGADFDSWGQRTQVTVSS”, for which the “polyreactivity (PSR sort gate)” value was “high polyreactivity”.

“QVQLVESGGGLVQAGGSLRLSCAASGRTFFRYAMGWYRQAPGKERELVAAISSSGGSSYYADSVKGRFTISRDNAKNTVYLQMNSLKPEDTAVYYCNRVYALTYYAKYGYDFWGQGTQVTVSS”: the “polyreactivity (PSR sort gate)” value is “high polyreactivity”.
